According to PMC3485042:

Molecular target: IhfAB (integration host factor) (UniProt P0A6X7+P0A6Y1)
Assay: DNase I footprinting
Settings: 25 mM Tris-HCl pH 7.5, 50 mM KCl, 6.25 mM MgCl2, 10% glycerol, 1 mM DTT, 30 min room temperature; then 2.5 mM CaCl2 and 5 mM MgCl2 added for DNase I (1 min)

Chain of UniProt P0A6X7 (P0A6X7 whole entry, chain 1 of 2): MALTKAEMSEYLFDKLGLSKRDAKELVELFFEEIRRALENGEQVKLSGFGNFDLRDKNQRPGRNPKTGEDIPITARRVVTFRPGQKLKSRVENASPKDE
Chain of UniProt P0A6X7 (P0A6Y1 whole entry, chain 2 of 2): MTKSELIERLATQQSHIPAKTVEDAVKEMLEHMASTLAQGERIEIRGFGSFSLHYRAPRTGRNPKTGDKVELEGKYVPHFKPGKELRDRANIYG

## TCTGGTTTGGTTTTGTTTTGCGGGTTAAAAGATCGTTTAAATCAATATTTACAACATAAAAAACTAAATTTAACTTATTGCGTGAAGAGTATTTCCGGGCCGGAAGCATATATCCAGGGGCCCGACAGAAGGGGGAAACAT (double strand) [papB promoter region (141 bp PCR product)]
  binding: binds
